T1: AT2 receptor (Homo sapiens, UniProt P50052)
T1 sequence (P50052 1-363): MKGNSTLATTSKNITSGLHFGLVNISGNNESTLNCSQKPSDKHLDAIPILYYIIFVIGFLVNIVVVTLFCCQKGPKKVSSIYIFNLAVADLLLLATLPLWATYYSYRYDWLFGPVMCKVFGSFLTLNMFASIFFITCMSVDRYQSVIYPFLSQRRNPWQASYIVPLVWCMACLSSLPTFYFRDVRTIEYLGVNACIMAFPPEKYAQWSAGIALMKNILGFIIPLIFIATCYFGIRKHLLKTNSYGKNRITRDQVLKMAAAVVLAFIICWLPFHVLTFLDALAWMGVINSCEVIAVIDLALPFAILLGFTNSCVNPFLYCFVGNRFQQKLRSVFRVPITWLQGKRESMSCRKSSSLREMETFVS

T2: C-terminal end of the mouse AT2 receptor (Mus musculus, UniProt P35374)
T2 construct: expressed in transfected cells; host or cells: yeast HF7c (pGBT9 bait) or L40 (pLex9 bait)
T2 sequence (P35374 312-363): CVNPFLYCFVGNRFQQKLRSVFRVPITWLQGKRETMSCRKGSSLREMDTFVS

T3: C-terminal end of the human AT2 receptor (Asn314-Ser363) (Homo sapiens, UniProt P50052)
T3 construct: C-terminal end of the human AT2 receptor (Asn314-Ser363); made in house; host or cells: E. coli DH5α (pMAL-c2-AT2)
T3 sequence (P50052 314-363): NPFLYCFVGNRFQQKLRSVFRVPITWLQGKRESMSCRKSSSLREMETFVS

T4: C-terminal end of human AT1 receptor (Leu 297-Glu 359) (Homo sapiens, UniProt P30556)
T4 construct: C-terminal end of human AT1 receptor (Leu 297-Glu 359); made in house; host or cells: bacteria, same protocol as MBP-AT2 (E. coli DH5α)
T4 sequence (P30556 297-359): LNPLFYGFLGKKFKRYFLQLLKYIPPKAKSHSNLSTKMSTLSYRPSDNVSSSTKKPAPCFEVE

B1: ATIPmouse-short: Polypeptide (SEQ ID NO:6) encoded by the 354 bp ATIP clone (SEQ ID NO:5); AT2 interacting protein fragment, used as a GST fusion (protein)
chain: HQTDRTELENRLKDLYTAECEKLQSIYIEEAEKYKTQLQEQFDNLNAAHETTKLEIEASHSEKVELLKKTYETSLSEIKKSHEMEKKSLEDLLNEKQESLEKQINDLKSENDALNERL
modifications: used as GST fusion; Insert identified by yeast two hybrid screening of a M. musculus fetal cDNA library

Experiments:
[1] = biological target: T1, AT2 receptor; assay: Inhibition of insulin-induced tyrosine phosphorylation in CHO-hAT2-ATIP cells; format: cell-based; parameters: a plasmid containing the region encoding the human AT2 receptor; expressed in transfected cells; host or cells: CHO-hAT2 cells stably transfected with ATIPmouse-long; conditions: 100 nM, insulin 0.05, 0.01, 0.005, 0.001 μg/ml, reproduced 3 times
From the text: (§1) For that, a stable clone of CHO-hAT2 cells expressing the ATIPmouse-long protein (CHO-hAT2-ATIP), obtained according to the methodology described in Example 4, was used; the functional test for the activity of the AT2 receptor developed on the CHO-hAT2 clone which consists in inhibiting the phosphorylation of the IRβ subunit of the insulin receptor induced by its ligand, was reproduced.
The CHO-hAT2 cells are inoculated at a density of 3×10^6 cells per dish having a diameter of […]. They are made quiescent by 16 hours of deprivation before being treated. The treatment consists in bringing into contact for 5 minutes with 15 ml of F12 medium containing insulin supplemented or otherwise with CGP42112 (selective agonist of the AT2 receptor). […] After bringing into contact and washings, the lectin beads coupled to Sepharose (Pharmacia) are recovered in sample buffer containing SDS and the eluted proteins are analysed in SDS-PAGE followed by immunoblotting with anti-phosphotyrosine antibodies (Upstate Biotechnology, Inc.) or anti-IRβ antibodies (described in Issad, T. et al., cited above). […]

[2] = biological target: T1, AT2 receptor; assay: Inhibition of insulin-induced tyrosine phosphorylation in CHO-hAT2 cells; format: cell-based; parameters: a plasmid containing the region encoding the human AT2 receptor; expressed in transfected cells; host or cells: CHO cells deficient in dihydrofolate reductase (clone CHO-hAT2)
From the text: as §1
The CHO-hAT2 cells are inoculated at a density of 3×10^6 cells per dish having a diameter of […]. They are made quiescent by 16 hours of deprivation before being treated. […] After treatment, the cells are solubilized in lysis buffer containing: 50 mM Hepes, pH 7.6, 1% Triton X-100, 20 mM EDTA, 30 mM sodium pyrophosphate, 30 mM sodium fluoride, 2 mM benzamidine, 1 mM sodium orthovanadate, 1 mM phenylmethylsulphonyl fluoride and 1 μg/ml of aprotinin, pepstatin, antipain and leupeptin. The lysates are then subjected to purification on a wheatgerm lectin column, according to the protocol described in Issad, T. et al., (Eur. J. Biochem. 1995, 234, 108-115). After bringing into contact and washings, the lectin beads coupled to Sepharose (Pharmacia) are recovered in sample buffer containing SDS and the eluted proteins are analysed in SDS-PAGE followed by immunoblotting with anti-phosphotyrosine antibodies (Upstate Biotechnology, Inc.) or anti-IRβ antibodies (described in Issad, T. et al., cited above).

[3] = biological target: T2, C-terminal end of the mouse AT2 receptor; assay: Two-hybrid interaction of the ATIP clone with the AT2 C-terminal bait; format: binding; conditions: baits in pGBT9 and pLEX9; mouse foetal cDNA library clone
From the text: In the two-hybrid system, the DNA-binding domain is fused with a protein X and the activation domain is fused with a protein Y. If, and only if, X and Y interact, a complex is formed which reconstitutes a functional transcription factor.
Protein X: C-terminal end of the sequence encoding the mouse AT2 receptor (52 amino acids of CVNPF at the stop codon, see FIG. 1), fused with the sequence encoding the Gal4 DNA-binding domain (FIG. 2).
Insert: end of the mouse AT2 receptor (159 bp+16 bp of sites generated by PCR) inserted at the level of the EcoRI and BamHI sites of the vectors pLEX9 (Clontech) or pGBT9 (modified pGAD424 or pBTM116; A. B. Vojtek et al., Cell, 1993, 74, 205-214).
mouse foetal cDNA library (A. B. Vojtek et al., Cell, 1993, 74, 205-214) , containing inserts of 350 to 700 bp (protein Y) in the vector VP16 (FIG. 5).
HF7c (Clontech) for the bait constructed in pGBT9;
L40 for the bait constructed in pLex9.

[4] = system: C-terminal end of the human bradykinin receptor; assay: Two-hybrid selectivity test with a control bait; format: binding
From the text: (§2) Protein X: C-terminal end of the human β2-adrenergic receptors, rat AT1 or human bradykinin.

[5] = biological target: T5, C-terminal end of the human β2 adrenergic receptor (Homo sapiens, UniProt P07550); assay: Two-hybrid selectivity test with a control bait; format: binding
T5 construct: C-terminal end of the human β2-adrenergic receptors; expressed in transfected cells
From the text: as §2

[6] = system: C-terminal end of the rat AT1 receptor; assay: Two-hybrid selectivity test with a control bait; format: binding
From the text: as §2

[7] = biological target: T3, C-terminal end of the human AT2 receptor (Asn314-Ser363); assay: In vitro GST pull-down of MBP-AT2 on GA-GST-ATIPmouse-short beads; format: binding; conditions: compared with GA-GSTalone beads; SDS-PAGE and anti-MBP immunoblot; FIG. 10
Procedure: For that, the fusion protein GST-ATIP as described above was produced; it is combined through its GST part with glutathione coupled to agarose beads (GA). In parallel, bacteria (DH5α) are transfected with a plasmid (pMAL-c2-AT2, derived from pMAL-c2 from New England Biolabs) encoding a fusion protein between the C-terminal end of the human AT2 receptor (Asn314-Ser363) and MBP (Maltose Binding Protein). These bacteria were cultured and the fusion protein was induced in 0.3 mM IPTG according to the protocol “pMAL Protein Fusion and Purification System” from New England Biolabs. After centrifugation of the culture at 4000 g and solubilization of the pellet obtained in “column buffer” (20 mM Tris-HCl, 200 mM NaCl, 1 mM EDTA), another centrifugation at 9000 g made it possible to recover a supernatant containing a high concentration of MBP-AT2. This supernatant was brought into contact, for 3 hours at […], with glutathione agarose beads coupled to GST protein alone after addition of NaCl so as to have 300 mM final NaCl. This preincubation step makes it possible to remove the nonspecific interactions which may exist between ATIP and GA-GST. The supernatant recovered was brought into contact with the GA-GST-ATIPmouse-short or GA-GSTalone beads overnight at 4° C. After contact, the beads were rinsed three times in 20 mM Tris-HCl buffer, 300 mM NaCl, 1 mM EDTA and once in “column buffer”.

[8] = biological target: T4, C-terminal end of human AT1 receptor (Leu 297-Glu 359); assay: In vitro GST pull-down of MBP-AT1 on GA-GST-ATIPmouse-short beads; format: binding; conditions: SDS-PAGE and anti-MBP immunoblot; FIG. 10

Row | Molecule | inhibition of the phosphorylation of the insulin receptor [1] | inhibition of the phosphorylation of IRβ induced by insulin ([2]; CHO-hAT2 cells, 100 nM, all insulin doses between 0.1 and 0.001 μg/ml, 5 minutes) | inhibition of the phosphorylation of IRβ ([2]; CHO-hAT2 cells, induced by 0.01 μg/ml insulin, n=7) [%] | inhibition of insulin-induced tyrosine phosphorylation of SIRP (120 kDa) ([2]; clone CHO-hAT2) | interaction with the C-terminal end of AT2 in the two-hybrid system [3] | two-hybrid interaction with the C-terminal end of the human bradykinin receptor [4] | two-hybrid interaction with the C-terminal end of the human β2 adrenergic receptor [5] | two-hybrid interaction with the C-terminal end of the rat AT1 receptor [6] | retention of the MBP-AT2 protein on GA-GST-ATIPmouse-short beads [7] | retention of the MBP-AT1 protein on GA-GST-ATIPmouse-short beads [8]
1 | CGP42112 | not observed | inhibit | 64±4 | inhibited |  |  |  |  |  | 
2 | B1 |  |  |  |  | interacts specifically | negative results | negative results | negative results | specific retention | not retained in a specific manner

— patent US6835539B1, “Nucleic sequences coding for an AT2 interacting proteins interacting with the AT2 receptor and their applications” (priority 1998, dated 2004)
